According to publication PMC5679641 (PLoS Pathogens, 2017):
“And” between values parts separate entries of the source, which are not always exact repeats. Identical values can stand only once.

Legend:
[1] = biological target: ABIN2, Nluc- or YFP-tagged (BRET) (human) (UniProt Q8NFZ5); assay: FRET or BRET
[2] = biological target: RelAp43, Nluc- or YFP-tagged (BRET); assay: FRET or BRET
[3] = biological target: TPL2, Nluc- or YFP-tagged (BRET) (human) (UniProt P41279); assay: FRET or BRET
[4] = biological target: T1, p105, Nluc- or YFP-tagged (BRET) (UniProt P19838 1-968); assay: FRET or BRET; conditions: partners not purified
T1 construct: also called NFκB1(p105/p50)
T1 sequence (looked up): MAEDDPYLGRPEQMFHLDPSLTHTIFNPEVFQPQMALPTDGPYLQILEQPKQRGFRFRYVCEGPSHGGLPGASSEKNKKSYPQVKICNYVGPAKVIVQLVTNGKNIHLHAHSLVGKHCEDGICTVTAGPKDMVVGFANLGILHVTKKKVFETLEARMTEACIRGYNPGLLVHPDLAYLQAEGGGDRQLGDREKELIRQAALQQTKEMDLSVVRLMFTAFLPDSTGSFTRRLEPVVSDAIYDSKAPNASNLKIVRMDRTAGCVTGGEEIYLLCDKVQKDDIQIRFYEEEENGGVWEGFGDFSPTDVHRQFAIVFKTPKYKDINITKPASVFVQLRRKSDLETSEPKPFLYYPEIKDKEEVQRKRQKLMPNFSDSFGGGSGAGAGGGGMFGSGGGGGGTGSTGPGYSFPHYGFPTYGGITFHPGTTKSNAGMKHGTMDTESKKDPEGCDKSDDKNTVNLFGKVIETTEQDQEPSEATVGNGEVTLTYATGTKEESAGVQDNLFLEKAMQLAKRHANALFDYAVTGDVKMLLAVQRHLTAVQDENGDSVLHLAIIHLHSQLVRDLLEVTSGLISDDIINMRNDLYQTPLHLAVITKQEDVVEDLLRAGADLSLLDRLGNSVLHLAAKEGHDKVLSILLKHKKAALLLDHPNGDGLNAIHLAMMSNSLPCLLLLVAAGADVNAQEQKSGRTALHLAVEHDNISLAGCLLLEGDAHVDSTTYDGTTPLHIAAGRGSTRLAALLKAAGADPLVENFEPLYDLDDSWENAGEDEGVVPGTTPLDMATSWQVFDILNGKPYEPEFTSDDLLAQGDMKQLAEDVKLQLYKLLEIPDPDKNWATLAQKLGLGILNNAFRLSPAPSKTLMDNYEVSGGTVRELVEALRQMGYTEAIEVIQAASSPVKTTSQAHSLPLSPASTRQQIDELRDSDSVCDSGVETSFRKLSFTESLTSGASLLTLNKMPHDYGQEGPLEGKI

[5] = biological target: T2, TPL2, Nluc- or YFP-tagged (BRET) (human, UniProt P41279-1 1-467); assay: FRET or BRET; conditions: partners not purified
T2 construct: also called MAP3K8

[6] = biological target: TPL2, Glu1- or Glu2-tagged (PCA) (human, UniProt P41279-1 1-467); assay: split reporter (BiFC, NanoBiT); conditions: partners not purified
Chain of TPL2, Glu1- or Glu2-tagged (PCA) (P41279 whole entry): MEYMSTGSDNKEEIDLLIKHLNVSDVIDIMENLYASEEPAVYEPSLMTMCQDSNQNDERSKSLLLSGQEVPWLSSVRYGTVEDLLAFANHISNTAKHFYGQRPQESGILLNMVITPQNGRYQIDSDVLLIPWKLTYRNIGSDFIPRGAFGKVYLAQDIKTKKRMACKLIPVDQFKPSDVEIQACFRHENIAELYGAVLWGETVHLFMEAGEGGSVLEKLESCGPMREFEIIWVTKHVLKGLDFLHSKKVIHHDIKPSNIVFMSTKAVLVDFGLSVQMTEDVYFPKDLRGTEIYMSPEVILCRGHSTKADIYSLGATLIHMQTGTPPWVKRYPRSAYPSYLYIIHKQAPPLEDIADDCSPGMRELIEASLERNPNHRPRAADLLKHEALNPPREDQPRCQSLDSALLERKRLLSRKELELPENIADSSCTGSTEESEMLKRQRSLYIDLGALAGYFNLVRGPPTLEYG

Chain of RelAp43, Nluc- or YFP-tagged (BRET) (Q04206 whole entry): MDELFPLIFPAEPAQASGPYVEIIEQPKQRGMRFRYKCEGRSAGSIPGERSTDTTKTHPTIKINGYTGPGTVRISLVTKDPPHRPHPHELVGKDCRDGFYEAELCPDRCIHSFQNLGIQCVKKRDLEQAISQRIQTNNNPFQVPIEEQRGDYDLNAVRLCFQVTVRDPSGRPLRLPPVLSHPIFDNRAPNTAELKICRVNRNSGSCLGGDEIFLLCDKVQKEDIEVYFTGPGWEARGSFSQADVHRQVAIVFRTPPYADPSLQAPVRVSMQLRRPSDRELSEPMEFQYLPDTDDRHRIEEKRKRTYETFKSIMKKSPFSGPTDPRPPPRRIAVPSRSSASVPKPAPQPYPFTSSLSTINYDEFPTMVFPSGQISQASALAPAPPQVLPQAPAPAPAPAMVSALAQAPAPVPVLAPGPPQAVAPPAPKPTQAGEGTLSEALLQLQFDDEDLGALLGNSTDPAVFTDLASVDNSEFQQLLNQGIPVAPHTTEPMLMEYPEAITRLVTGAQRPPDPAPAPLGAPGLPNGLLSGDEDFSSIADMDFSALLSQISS
T2 sequence (P41279 whole entry): as the sequence (P41279 whole entry) above
Chain of TPL2, Nluc- or YFP-tagged (BRET) (human) (P41279 whole entry): as above

Molecule: MSAD, YFP-tagged (BRET) (from UniProt P16287 1-202) (natural protein)
- netBRET [1]: 0.022 and 0.063

Molecule: MTha, YFP-tagged (BRET) (natural protein)
- netBRET [2]: 0.022 to 0.109
- netBRET [3]: > 0.05

Molecule: p50, Nluc- or YFP-tagged (BRET) (domain or fragment)
- netBRET [2]: > 0.05

Molecule: p105, Nluc- or YFP-tagged (BRET) (from UniProt P19838 1-968) (natural protein)
- netBRET [2]: > 0.05

B1: ABIN2, Nluc- or YFP-tagged (BRET) (natural protein, human, UniProt Q8NFZ5-1 1-429, looked up)
chain: MSRDPGSGGWEEAPRAAAALCTLYHEAGQRLRRLQDQLAARDALIARLRARLAALEGDAAPSLVDALLEQVARFREQLRRQEGGAAEAQMRQEIERLTERLEEKEREMQQLLSQPQHEREKEVVLLRRSMAEGERARAASDVLCRSLANETHQLRRTLTATAHMCQHLAKCLDERQHAQRNVGERSPDQSEHTDGHTSVQSVIEKLQEENRLLKQKVTHVEDLNAKWQRYNASRDEYVRGLHAQLRGLQIPHEPELMRKEISRLNRQLEEKINDCAEVKQELAASRTARDAALERVQMLEQQILAYKDDFMSERADRERAQSRIQELEEKVASLLHQVSWRQDSREPDAGRIHAGSKTAKYLAADALELMVPGGWRPGTGSQQPEPPAEGGHPGAAQRGQGDLQCPHCLQCFSDEQGEELLRHVAECCQ
notes: also called TNIP2
- netBRET [4]: < 0.05
- netBRET [5]: 0.093

B2: ABIN2, Glu1- or Glu2-tagged (PCA) (natural protein, human, UniProt Q8NFZ5-1 1-429, looked up)
chain: MSRDPGSGGWEEAPRAAAALCTLYHEAGQRLRRLQDQLAARDALIARLRARLAALEGDAAPSLVDALLEQVARFREQLRRQEGGAAEAQMRQEIERLTERLEEKEREMQQLLSQPQHEREKEVVLLRRSMAEGERARAASDVLCRSLANETHQLRRTLTATAHMCQHLAKCLDERQHAQRNVGERSPDQSEHTDGHTSVQSVIEKLQEENRLLKQKVTHVEDLNAKWQRYNASRDEYVRGLHAQLRGLQIPHEPELMRKEISRLNRQLEEKINDCAEVKQELAASRTARDAALERVQMLEQQILAYKDDFMSERADRERAQSRIQELEEKVASLLHQVSWRQDSREPDAGRIHAGSKTAKYLAADALELMVPGGWRPGTGSQQPEPPAEGGHPGAAQRGQGDLQCPHCLQCFSDEQGEELLRHVAECCQ
- other [6]: 0.86

B3: MSAD, YFP-tagged (BRET) (natural protein)
chain: MNLLRKIVKNRRDEDTQKSSPASAPLDDDDLWLPPPEYVPLKELTGKKNMRNFCINGRVKVCSPNGYSFRILRHILKSFDEIYSGNHRMIGLVKVVIGLALSGSPVPEGLNWVYKLRRTFIFQWADSRGPLEGEELEYSQEITWDDDTEFVGLQIRVIAKQCHIQGRVWCINMNPRACQLWSDMSLQTQRSEEDKDSSLLLE
- netBRET [5]: > 0.05
